Laboratory results from the supplement of paper PMC9170038.

Test system: MS2 coat protein
Assay: apparent KD of MS2 coat protein; designed switch direction (-1 OFF switch, 1 ON switch): 1; higher = weaker reporter binding
Procedure, shortened: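 Designed RNA switches were transcribed on Illumina chips by stalled E. coli RNA polymerase and titrated with SNAP-549-labelled MS2 coat protein from 0.7 or 1.5 nM, doubling to 3 µM. Step length ran from 0.8–1.5 h at the lowest concentration to 10–20 min at the highest. The apparent KD is the median over clusters for each design, from curve-fitted normalised cluster fluorescence.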

[1] = input ligand: microRNA oligo, concentration not stated
[2] = Eterna round: R95, input ligand: FMN 200 uM
[3] = Eterna round: R95, input ligand: microRNA oligo, concentration not stated
[4] = Eterna round: R95, input ligand: none

Row | Sequence | apparent KD of MS2 coat protein (input ligand: FMN 200 uM) [nM] | apparent KD of MS2 coat protein [1] [nM] | apparent KD of MS2 coat protein (input ligand: none) [nM] | apparent KD of MS2 coat protein [2] [nM] | apparent KD of MS2 coat protein [3] [nM] | apparent KD of MS2 coat protein [4] [nM]
1 | UGGUACAUGCGAGGAUAUGGGUUGAUGACAUGAGGAUCACCCAUGUUAAAUAUGCCGAGAGGCACCUAGAAGGCGCAUGUACCU [MOD2 of JL SSNG1 3.99] (Eterna round: R96, puzzle: Same State NG 2) | 10.4 | 23 | 36.9 | – | – | –
2 | GGAGAGAGAGCGCAGGAUAUUUAAGGAGAAACAUGAGGAUCACCCAUGUGAGAGAGAGAGGAGAGAGAGAAGGGUGAGAGAGAGG [Altered State 2-16 - Jieux - Same State 2] (puzzle: Same State 2) | – | – | – | 26.7 | 23.9 | 36.2
3 | UUUGGGUGGCUGGAGGAUAUCCUUGUGGUUACAUGAGGAUCACCCAUGUGCCGCGCGGUGCGCGAGGAGAAGGCUGGCGGCCGUU (puzzle: Same State 2) | – | – | – | 26 | 79.5 | 151
4 | CUGCUCGGGUGAGGAUAUGCCGCCGUUUCGGCUGCAGAAGGUGCUACGUUACAUGAGGAUCACCCAUGUCUCUGUUGUUUCGUC [salish99_SSNG1_r04_967] (Eterna round: R96, puzzle: Same State NG 1) | 74 | 41 | 57.3 | – | – | –
5 | UGUUGUAUUACAGGAUAUCUAUGAUUAUUAUUUAGAGAAGGGUAUUCACAUGAGGAUCACCCAUGUAUAUACGAGGAAGUUGUG [JMF's solution 59] (Eterna round: R96, puzzle: Same State NG 1) | – | 31.2 | – | – | – | –
6 | AUAAGUUCGAUGCUCGUCUCUCCGUACAAACAUGAGGAUCACCCAUGUGAUUAGGCAGUAGCCCAAUCAGUAUGGCC [Ariusveri] (puzzle: Sensor for hsa-mir-208a) | – | – | – | 38.7 | 21.8 | 43.4
7 | UGUACAUGAGGAUCACCCAUGUCUAGACAUGUUAAUAUAAUGUAGGAUAUAUAAUAUUUAAAUUAAUAGAAGGACAAUUUUUUU [JMF's solution 3] (Eterna round: R96, puzzle: Same State NG 3) | 147 | 115 | 234 | – | – | –
8 | CCAGCUUCGGCAGGAUAUGGCGCGCCACUACGCCCAGAAGGGCCGGAAGAUACUACAACCACUACAUGAGGAUCACCCAUGUCA [Eternabot solution 1] (Eterna round: R96, puzzle: Same State NG 1) | 30.7 | 5.79 | 66.8 | – | – | –
9 | GUACAGAUCAGAGGAUAUCACGUCGAUUAGACGUGAGAAGGCUGAUCACACAUGAAUAUUAGUACAUGAGGAUCACCCAUGUAC [SSNG1/15-A2] (Eterna round: R96, puzzle: Same State NG 1) | 14 | 12.5 | 16.7 | – | – | –
10 | AGUCCAGCCUGAGCUGGACUGAAGCAUGUACAUGAGGAUCACCCAUGUUCAUGUGCAAGCUUUUUGCUCGUCUUAUG [JL-shm-2.03 JL mod] (puzzle: Sensor for hsa-mir-208a) | – | – | – | 42 | 11.5 | 41.8
11 | AAAAUACAUGAGGAUCACCCAUGUAGAAACUACACAGGAUAUCGGACGGCUAUAACCGAACGAGAAGGGUGAACCC [Onorvea] (puzzle: Same State 1) | – | – | – | 260 | 354 | 362
12 | UUUAGUUGCGCGCAGGAUAUGUAUUAAUAUACAUGAGGAUCACCCAUGUGAGAUCGAAUAGAUCUACAGAAGGGCGAAUCGCGAC [Laonerce - 26] (puzzle: Same State 2) | – | – | – | 32.9 | 168 | 611
13 | CGCAUCCUUGUUACAUGAGGAUCACCCAUGUUUUCGAGUGGAGAGGAUAUCGUAACAGUAUUUUUCGAGAAGGCUCUAUAGUAU [JR_SSNG3_Sub081] (Eterna round: R96, puzzle: Same State NG 3) | 52.1 | 39 | 57.3 | – | – | –
14 | AAAGAAAACAUAGGAUAUGUAACAUGAGGAUCACCCAUGUAUACCUCGUAAGAGAUGAUGGAUGGACAGAAGGAUGAUCUCAGG [Default title] (Eterna round: R96, puzzle: Same State NG 2) | – | 111 | – | – | – | –
15 | CGUAGGUAGCUGGAGGAUAUUCGAGUGGUAACAUGAGGAUCACCCAUGUGGUGAGAGGAACAUGAGGAGAAGGCUAGCUGCCUGC [JL-ss2-3.15 JL mod] (puzzle: Same State 2) | – | – | – | 118 | 96.2 | 76.9
16 | CAGCCACAAAAUACGGCUGAAACAUGAGGAUCACCCAUGUCACAGGAUAUCCAACGGUAUACCGCGGAGAAGGGUGCGAAGAAC [Ceusso] (Eterna round: R96, puzzle: Same State NG 3) | 73.7 | 73.8 | 52.4 | – | – | –

Row | Sequence | apparent KD of MS2 coat protein (input ligand: FMN 200 uM) [nM] | apparent KD of MS2 coat protein [1] [nM] | apparent KD of MS2 coat protein (input ligand: none) [nM] | apparent KD of MS2 coat protein [2] [nM] | apparent KD of MS2 coat protein [3] [nM] | apparent KD of MS2 coat protein [4] [nM]
17 | GGAGCCAAGGCAGGAUAUUCAUAUUAAAUGACAUGAGGAUCACCCAUGUUGGCCAGAAGGCCAUGGGAGAAGGGCCAUGGCUCG [Xeonanis - 13 mod23] (Eterna round: R96, puzzle: Same State NG 2) | 41.3 | 127 | 166 | – | – | –
18 | UACAAUCUAUCUGAGGAUAUCAUGAUUGUAACAUGAGGAUCACCCAUGUGCAGGAAAACUGCAUAUGAGAAGGCAGAUAGAUUGU [salish99_ss2_r3_071] (puzzle: Same State 2) | – | – | – | 113 | 78 | 708
19 | AAAUUACUCCGAGGAUAUGCAUGGCUUUGUGCCGCAGAAGGUGGAUCGACGGACAUGAGGAUCACCCAUGUACACUGUCCUAUA [Gerite] (Eterna round: R96, puzzle: Same State NG 1) | 26.4 | 34.7 | 46.9 | – | – | –
20 | UAGACAAGCUUUAUGUUCUUCCUUUUCCUACAUGAGGAUCACCCAUGUAGUCUGUCGAUUGAGAGAGUAGUUGAGAA [JR_SHM208A_Sub024] (puzzle: Sensor for hsa-mir-208a) | – | – | – | 17.8 | 16.5 | 18.2
21 | GCUCGUAUGAUGACCGACAUGAGGAUCACCCAUGUGUGUCGGUAGGAUAUCUAUAUUAAGGAUAUAGAGAAGGGCCGAACGAGC [SameState NG3 #17] (Eterna round: R96, puzzle: Same State NG 3) | 31.4 | 62.9 | 92.9 | – | – | –
22 | AACAAUCUAUCUGAGGAUAUCAUGAAAUAAACAUGAGGAUCACCCAUGUGCAGGAAAACUGCAUAUGAGAAGGCAGAUAGAUUUA [salish99_ss2_r3_057] (puzzle: Same State 2) | – | – | – | 43.8 | 638 | 1000
23 | GGAUGAUAAAUAGGAUAUUAAUUGUAAUUAGGUUAAGAAGGAUUAAUGAUUUAAACGACCAGUUACAUGAGGAUCACCCAUGUU [JR_SSNG1_Sub088] (Eterna round: R96, puzzle: Same State NG 1) | – | 108 | – | – | – | –
24 | GUUACAUGAGGAUCACCCAUGUAUGUGUGGGAGUAAGUGUCUUAGGAUAUCUAGUAUUCAAUUUAAGAGAAGGAAGAUUGUUGU [JMF's solution 58] (Eterna round: R96, puzzle: Same State NG 3) | 109 | 64.2 | 93.9 | – | – | –
25 | ACAUGAGGAUCACCCAUGUGAAAAGACCUAGAGGUGAAGCCGCAGGAUAUAUCACAAACGAGAAGAUAGAAGGGCGUACGCAUG [Eternabot solution 9] (Eterna round: R96, puzzle: Same State NG 3) | 89.7 | 60.5 | 72.1 | – | – | –
26 | GGUCGGACUCACAUGAGGAUCACCCAUGUUGCGGAAACGCGACAGGAUAUCUGUCCGAAAAGGUCAGAGAAGGGUCAACCGACC [Fiskers NG3ss - 58] (Eterna round: R96, puzzle: Same State NG 3) | 853 | 431 | 504 | – | – | –
27 | CUGCUCGUGUGAGGAUAUGCCGCCGUUUCGGCUGCAGAAGGUGCUACGUUACAUGAGGAUCACCCAUGUCUCUGUUGUUUCGUA [salish99_SSNG1_r04_948] (Eterna round: R96, puzzle: Same State NG 1) | 40.1 | 28.8 | 35.9 | – | – | –
28 | AAUCAACGCCGAGGAUAUCGGCCUACAUGAGGAUCACCCAUGUUGGGACAUAAAUUAAUCUCGGCUGAGAAGGCGGGAGUUGAC [Eternabot solution 38] (Eterna round: R96, puzzle: Same State NG 2) | 23 | 13.3 | 19.9 | – | – | –
29 | GAGCCAGUCCGAGGAUAUUCGUAGGAACACAUGAGGAUCACCCAUGUGGGCUCAGAAGAGCCCUGGGAGAAGGCGGGCUGGCUC [SS-NG2-LRO18] (Eterna round: R96, puzzle: Same State NG 2) | 7.53 | 8.45 | 17.5 | – | – | –
30 | AACGGUCGACAAGGAUAUGGACGGACAGGUUUGCCUGUGCGGCUCACAUGAGGAUCACCCAUGUUCUAGAAGGUGUCACCAAGA [Tiinor] (Eterna round: R96, puzzle: Same State NG 2) | 36.9 | 141 | 259 | – | – | –
31 | UUGAAUAAUUAAGGAUAUCGAGUACAUAUGUUAAACAUGAGGAUCACCCAUGUGGGUUGCGGUAUCGAGAAGGUAAAAGACAAG [Mat - Same State NG 2 - JL mod - D59] (Eterna round: R96, puzzle: Same State NG 2) | 31.2 | 25.6 | 42 | – | – | –
